# How the values were obtained:
# [1] = molecular target: mEGFP-labelled WASp (reciprocal tagging) (Drosophila); experiment: FRET or BRET; FLIM-FRET, pixel-resolution 'Interaction' in the CNS of live Drosophila embryos at hours 15 and 21, and Polarplot estimate of the percentage of donor molecules undergoing FRET (hour not told for the percentages)
# [2] = molecular target: mCherry::WASp (Wiskott-Aldrich Syndrome protein labelled with mCherry at its amino terminus) (Drosophila); experiment: as above
# [3] = molecular target: WASp labelled with mCherry at its carboxyl terminus (Drosophila); experiment: FRET or BRET; FLIM-FRET (3D frequency-domain FLIM): mean mEGFP donor fluorescence lifetime in a CNS segment of live whole Drosophila embryos at hour 15; both proteins expressed in all neurons under elav-GAL4; baseline lifetime without FRET 2.56 ns; 10-20 embryos for each experiment
# [4] = molecular target: mCherry::WASp (Wiskott-Aldrich Syndrome protein labelled with mCherry at its amino terminus) (Drosophila); experiment: as above
# mCherry::WASp (Wiskott-Aldrich Syndrome protein labelled with mCherry at its amino terminus) (Drosophila), sequence (main, as listed by the source): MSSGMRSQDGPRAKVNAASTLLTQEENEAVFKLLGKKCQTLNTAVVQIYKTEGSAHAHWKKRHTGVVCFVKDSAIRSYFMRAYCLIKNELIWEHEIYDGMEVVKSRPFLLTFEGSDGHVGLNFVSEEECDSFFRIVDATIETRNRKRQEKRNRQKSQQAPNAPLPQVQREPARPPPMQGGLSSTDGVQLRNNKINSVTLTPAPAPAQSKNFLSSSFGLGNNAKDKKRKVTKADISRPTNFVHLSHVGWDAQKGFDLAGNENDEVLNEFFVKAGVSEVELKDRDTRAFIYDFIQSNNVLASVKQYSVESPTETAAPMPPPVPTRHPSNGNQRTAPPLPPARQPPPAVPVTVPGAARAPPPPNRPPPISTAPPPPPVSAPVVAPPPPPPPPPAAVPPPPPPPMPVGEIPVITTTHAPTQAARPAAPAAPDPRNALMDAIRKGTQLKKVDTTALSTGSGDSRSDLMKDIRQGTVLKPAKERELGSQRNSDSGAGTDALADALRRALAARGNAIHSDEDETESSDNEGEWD
# mEGFP-labelled WASp (reciprocal tagging) (Drosophila), sequence (main, as listed by the source): as above
# WASp labelled with mCherry at its carboxyl terminus (Drosophila), sequence (main, as listed by the source): as above
Substance,fraction of WASp interacting with Cdc42 [1] [%],fraction of Cdc42 interacting with WASp [2] [%],mean donor (mEGFP) fluorescence lifetime [3] [ns],mean donor (mEGFP) fluorescence lifetime [4] [ns]
mCherry-labelled Cdc42 (reciprocal tagging) (from UniProt P40793 1-191) (natural protein),30,–,–,–
mEGFP::Cdc42 (cell division control protein 42 homolog labelled with mEGFP) (from UniProt P40793 1-191) (natural protein),–,10,2.44,2.45

# From publication PMC3929599
